Experimental findings from article PMC4297295, “Structural Conservation Despite Huge Sequence Diversity Allows EPCR Binding by the PfEMP1 Family Implicated in Severe Childhood Malaria” (Cell Host & Microbe, 2015) are described below.

For assay [1], the target named is endothelial protein C receptor with an N-terminal biotin (human) (UniProt Q9UNN8). Description: SPR; Biacore T200; EPCR biotinylated with BirA and coupled to a biotin capture chip to 150 RU; binding partners injected for 240 s, dissociation 300 s; 1:1 interaction model. (In general: Surface plasmon resonance follows binding to a sensor surface in real time, without labels.)

In assay [2] the target is endothelial protein C receptor (EPCR), extracellular domain, biotinylated on the N-terminal BAP tag (human) (UniProt Q9UNN8). The assay can be described thus: SPR; Biacore T200; biotinylated EPCR captured on a CAP chip (Biotin Capture Kit) to 150 RU, fresh for each cycle; two-fold dilution series of each CIDRα1 injected for 240 s, dissociation 300 s; 20 mM HEPES pH 7.5, 150 mM NaCl, 0.005% Tween-20, 25°C; surface without EPCR subtracted; global fit to a 1:1 interaction model.

Assay [3] concerns the target endothelial protein C receptor (EPCR), extracellular domain, not biotinylated (human) (UniProt Q9UNN8). Description: SEC-MALS; Superdex 75 analytical column, light scattering at 662 nm at 8 angles (Heleos 8), masses by the Zimm equation (ASTRA 6.1); HB3var03 CIDRα1.4, EPCR and their complex. Background: Size exclusion chromatography separates by hydrodynamic size, large species first.

For assay [4] the target is unchanged. Description: AUC.
Assay [5] has as its target endothelial protein C receptor (EPCR), extracellular domain, biotinylated on the N-terminal BAP tag (human) (UniProt Q9UNN8). Description: SPR.
For assay [6], the target named is endothelial protein C receptor, extracellular domain (human) (UniProt Q9UNN8). Description: small-angle X-ray scattering.
Assay [7] has as its target CIDRα1.4 domain of PfEMP1 HB3var03, E. coli construct with domain boundaries for crystallisation (Plasmodium falciparum). The assay can be described thus: ITC; MicroCal iTC200, 25°C, 20 mM HEPES pH 7.5, 150 mM NaCl; EPCR (36 µM by the legend, 50 µM by the supplemental methods) injected into the cell with HB3var03 CIDRα1.4.
The target in assay [8] is T1, endothelial protein C receptor (EPCR), extracellular domain, biotinylated on the N-terminal BAP tag (human, UniProt Q9UNN8 18-210, biotin attached to the N-terminal BAP tag (BirA)).
T1 construct: also called biotinylated recombinant EPCR; ECPR
T1 sequence: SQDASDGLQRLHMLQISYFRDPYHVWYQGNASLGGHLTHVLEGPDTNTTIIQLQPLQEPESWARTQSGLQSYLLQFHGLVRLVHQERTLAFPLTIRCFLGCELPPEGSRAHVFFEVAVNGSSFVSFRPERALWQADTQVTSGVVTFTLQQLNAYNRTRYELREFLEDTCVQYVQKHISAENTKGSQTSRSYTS
Description: SPR. Particulars: both partners purified.

Assay [9] has as its target T1, endothelial protein C receptor (EPCR), …. The assay can be described thus: SPR; Biacore T200; biotinylated EPCR captured on a CAP chip (Biotin Capture Kit) to 150 RU, fresh for each cycle; two-fold dilution series of each CIDRα1 injected for 240 s, dissociation 300 s; 20 mM HEPES pH 7.5, 150 mM NaCl, 0.005% Tween-20, 25°C; surface without EPCR subtracted; global fit to a 1:1 interaction model. Particulars: both partners purified.

Consider “HB3var03 CIDRα1.4 F656Y (domain or fragment)”, for which, in assay [1], the Kd (as a rule, the constant that tells how readily two partners part at equilibrium) was less than 5 nM and the fold reduction of the affinity against wild-type HB3var03 CIDRα1 came out at 4 fold.

Consider “HB3var03 CIDRα1.4 domain, mutant F656V (domain or fragment)”, for which, in [2], the Kd worked out at 1.5 nM; the koff (as a rule, the rate constant with which the complex falls apart) stood at 0.000223 s⁻¹; the kon – broadly, a measure of how fast the partners come together – was determined as 145000 M⁻¹ s⁻¹.

For the molecule “HB3var03 CIDRα1.4 F656A (domain or fragment)”, in assay [1], the fold change in the dissociation rate constant against wild-type HB3var03 CIDRα1 was found to be 100 fold and the fold effect on the affinity against wild-type HB3var03 CIDRα1 was 35 fold.

In assay [2], “HB3var03 CIDRα1.4 domain, mutant F655L (domain or fragment)” came in with a Kd of 4.3 nM, a koff of 0.00063 s⁻¹ and a kon of 145000 M⁻¹ s⁻¹.

With “HB3var03 CIDRα1.4 F655L (domain or fragment)”, in [1], the Kd was less than 5 nM.

As to “HB3var03 CIDRα1.4 domain, mutant F651A (domain or fragment)”, in [2], the Kd was 2.5 nM, the koff was 0.000394 s⁻¹ and the kon is 160000 M⁻¹ s⁻¹.

Turning to “HB3var03 CIDRα1.4 domain, mutant Q657K (domain or fragment)”, in assay [2], the Kd amounted to 72 nM, the koff worked out at 0.00499 s⁻¹ and the kon was 68900 M⁻¹ s⁻¹.

In assay [1], “HB3var03 CIDRα1.4 Q657K (domain or fragment)” had a fold reduction of the affinity against wild-type HB3var03 CIDRα1 of 200 fold.

Consider “CIDRα1.4 domain of PfEMP1 HB3var03, E. coli construct with domain boundaries for crystallisation (domain or fragment)”, for which the stoichiometry N (usually the number of molecules, sites or subunits per partner or assembly) in assay [3] worked out at 1. The stoichiometry N in [4] was 1. In assay [5], this molecule gave a Kd of 0.37 nM, a koff of 0.000197 s⁻¹ and a kon of 532000 M⁻¹ s⁻¹.

As for “HB3var03 CIDRα1.4 domain, mutant F656Y (domain or fragment)”, in assay [2], the Kd stood at 1.9 nM, the koff came to 0.000379 s⁻¹ and the kon came to 329000 M⁻¹ s⁻¹.

As to “HB3var03 CIDRα1.4 domain, mutant V658A (domain or fragment)”, in [2], the Kd turned out to be 37 nM, the koff was determined as 0.000719 s⁻¹ and the kon stood at 19400 M⁻¹ s⁻¹.

Consider “DD2var32 DBLα1.7-CIDRα1.4-DBLβ1 (the three membrane distal domains) (domain or fragment)”, for which the stoichiometry N in assay [6] was 1 PfEMP1:EPCR.

Regarding “CIDRα1.4 domain of PfEMP1 IT4var07, E. coli construct with domain boundaries for crystallisation (domain or fragment)”, in assay [5], the Kd is 1.3 nM, the koff was 0.000468 s⁻¹ and the kon amounted to 370000 M⁻¹ s⁻¹.

In the case of “HB3var03 CIDRα1.4 F656V (domain or fragment)”, in [1], the Kd is less than 5 nM and the fold reduction of the affinity against wild-type HB3var03 CIDRα1 amounted to 4 fold.

The molecule “HB3var03 CIDRα1.4 F655Y (domain or fragment)” yielded a Kd in [1] of less than 5 nM.

For “endothelial protein C receptor (EPCR), extracellular domain, not biotinylated (from UniProt Q9UNN8 18-210)”, in assay [7], the Kd came to 1.5 nM and the stoichiometry N turned out to be 0.94.

In [2], “HB3var03 CIDRα1.4 domain, mutant F655Y (domain or fragment)” displayed a Kd of 0.5 nM, a koff of 0.000572 s⁻¹ and a kon of 1.1e+06 M⁻¹ s⁻¹.

In assay [2], “HB3var03 CIDRα1.4 domain, mutant W669S (domain or fragment)” yielded a Kd of 11 nM, a koff of 0.000449 s⁻¹ and a kon of 40100 M⁻¹ s⁻¹.

B1: CIDRα1.1 domain 2110-3 (patient isolate 2110) (domain or fragment)
chain: CPDCVVECVGGECKQKTDDDKNCRSKIIEEILKGEEPTVIDVLYSGNGQGVITKKLHDFCSSTNKEDDKYYKKWKCYNKNSDYNNCELISSLSTDPNDPNVMLSIKCFDSWARNLLVDALKWEHQLKNCINNTNVTDCKSNCNNNCKCYEEWIKRKGREWKQVKGVIENNDEGSHYYYKNVKNLFYNFLYPVIYKLEKEEKNGKWDQFMEDLKKKIESSETNTHTTDSQDAIELLLDHLKENAITCKDNNSLEEDKNC
For the molecule B1, in assay [8], binding was characterised by a dissociation constant (Kd) of 32 nM, the koff was found to be 0.000511 s⁻¹ and the kon was 15700 M⁻¹ s⁻¹.

B2: CIDRα1.8b domain 2053-3 (patient isolate 2053) (domain or fragment)
chain: PICGVKCENKSCTDKENDDDCKNKKKYDPPKGVTPIDIPILYSGDKQGDITKKLEDFCYNRTKENEKTYQNWKCYYKDSEFNKCKMESKSGKSTTQEKIISFDEFFYLWVNNLLIDSIMWENDIKHCINNTNVTNCKNKCNENCKCFKNWVKKKEEEWTKVKQILGNRSENLNNYYNKLNSLFKGFFFEVVYKFNNKEEKWNKLTEKLEQKIGSSKGKEGVENPKDAIELLLDHLKENAITCKDNNSLEEDKNCPKIKINPC
Consider B2, for which, in [8], the Kd came out at 4 nM, the koff was found to be 7.65e-05 s⁻¹ and the kon was 20200 M⁻¹ s⁻¹.

B3: CIDRα1.8b domain 1702-3 (patient isolate 1702) (domain or fragment)
chain: PDCIVVCDYKGCKENKNDENCKSKRTYSLPPDVNSTEIEVLFSGDNQEDIVEKLSSFCKNTNNENGENVEKWECYYESEHNNKCKMTSPKHKDEKRPTVMIFDEFFDFWVTHLIKDTIKWESDINDCINNTNVTDCDSACNENCKCFDEWVEKKEVEWGNVKKVLGNRSENLNIYYNKLNGIFSGFFFGVMHELKKKEAKQGVKAEEAQEAEETQEAQEEEAKWNKLTAKLQEIIDSSKGKADTANSQDAIKPLLEYIKETATTCIDNNSLAVENCPKTKINPC
In assay [8], B3 had a Kd of 6 nM, a koff of 2.28e-05 s⁻¹ and a kon of 3640 M⁻¹ s⁻¹.

B4: CIDRα1.5b domain 1918-5 (patient isolate 1918) (domain or fragment, Plasmodium falciparum)
chain: PDCGVKCTNGKCEEKTDVDGNCGNKETYIPPRDISPTEISVLYSGYKRDDISEKLETFCREPTNNKSKNNETWKCYYKHSYNNKINKCIRQNEENIKNKLIINLDTFFEFWVRSFLNDTIDWKYDLNTCMNFTNTTKCNNNCNKNCKCFEQWVNKKETEWKNVAQYFFKHNEISKKKYCEILKDIFENYYVEVIKKVFKGDNKWKEIMVDIKNKIDCSNLKNGTEHLEKIINVLINQEQADATTCLKNNPIESCPKAEPQKSDENTQPQDTPPNSC
notes: The C-terminal V5 and His tags are told for the newly synthesised domains (D1:p2); also called CIDRa1.5b 1918-5_1918; 1918-5 (1.5b)
In assay [9], B4 displayed a Kd of 229 nM, a koff of 0.000108 s⁻¹ and a kon of 471 M⁻¹ s⁻¹.

B5: CIDRα1.8b domain GA029_ERS010532 (domain or fragment)
chain: PDCVVVCERGNCTEKKGDDKCRKKYTYEIPAGMESTKIDILFSGENQEDITEKLRSFCKNTNNENGENIEKWECYYKNEYDNKCKMTSLKREDQKHHDLMSYYEFFDFWVTHLIKDTIKWESDINDCINNTNVTNCNNGCNENCICFEKWVGQKEKEWENVKKVLKNPSENLNNYYNKLNGIFSGFFFGVMHELKKKEAKQGVKVEKAEKSEEAQEAQEEEAKWNKLTAKLEEIIKSHKENTGTGNTQDAIEPLLKYLDENAITCKDNNSLKEDKNCPKTKKNPC
notes: also called CIDRa1.8b GA029_ERS010532; GA029 (1.8b)
In assay [8], B5 returned a Kd of 24.2 nM, a koff of 0.000158 s⁻¹ and a kon of 6550 M⁻¹ s⁻¹.
